Peptide text beside a SMILES is read from it.

One experiment addresses CYFRA 21-1. Briefly: BLI binding affinity of synthesized peptides to immobilized CYFRA 21-1. To be noted: Octet RH96, CYFRA 21-1 immobilized on AR2G biosensors by amine coupling, room temperature, association 90 s, dissociation 180 s, KD = kd/ka. (In general: Biolayer interferometry detects binding as a change in optical thickness at a sensor tip.)
A further experiment concerns the target T1, carcinoembryonic antigen (UniProt P06731 35-685).
T1 construct: carcinoembryonic antigen (CEA), serum tumor marker; also called CEA; CAE
T1 sequence (looked up): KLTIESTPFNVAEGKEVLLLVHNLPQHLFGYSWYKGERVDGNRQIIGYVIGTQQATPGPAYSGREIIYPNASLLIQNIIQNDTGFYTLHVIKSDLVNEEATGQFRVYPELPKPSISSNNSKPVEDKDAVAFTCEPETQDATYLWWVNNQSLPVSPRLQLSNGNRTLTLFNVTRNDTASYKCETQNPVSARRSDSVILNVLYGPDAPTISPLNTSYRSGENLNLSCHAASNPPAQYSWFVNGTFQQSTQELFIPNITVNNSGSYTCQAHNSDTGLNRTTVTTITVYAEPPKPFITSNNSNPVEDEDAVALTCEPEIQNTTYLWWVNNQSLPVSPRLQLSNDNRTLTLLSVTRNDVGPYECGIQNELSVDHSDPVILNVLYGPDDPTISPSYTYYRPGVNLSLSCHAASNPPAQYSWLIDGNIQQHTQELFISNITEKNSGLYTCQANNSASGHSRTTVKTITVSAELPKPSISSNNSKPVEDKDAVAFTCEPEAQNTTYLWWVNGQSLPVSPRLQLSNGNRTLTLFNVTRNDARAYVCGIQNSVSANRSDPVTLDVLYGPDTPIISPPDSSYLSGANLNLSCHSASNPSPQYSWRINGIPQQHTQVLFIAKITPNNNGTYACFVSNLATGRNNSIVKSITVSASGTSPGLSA
Briefly: BLI; Octet RH96; CEA, SCCAg or CYFRA 21-1 immobilised on AR2G biosensors by amine coupling; peptides in a range of concentrations; room temperature; association 90 s, dissociation 180 s; KD as kd/ka. To be noted: both partners purified.

The target of a further experiment is T2, cytokeratin fragment 19 (Limits are not printed. The conventional CYFRA 21-1 soluble C-terminal fragment of KRT19 (after caspase-3 cleavage at Asp238) is used; from general knowledge, not from the paper or the candidate featu).
T2 chain: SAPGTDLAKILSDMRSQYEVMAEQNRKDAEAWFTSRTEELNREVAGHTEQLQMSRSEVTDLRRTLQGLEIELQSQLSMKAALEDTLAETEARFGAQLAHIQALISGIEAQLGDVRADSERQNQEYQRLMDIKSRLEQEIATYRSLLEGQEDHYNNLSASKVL
Described as above. Conditions: both partners purified.

Experiment [1] addresses squamous cell carcinoma antigen (UniProt P29508 1-390). Described as above. Conditions: both partners purified.

Sequence of squamous cell carcinoma antigen (P29508 whole entry): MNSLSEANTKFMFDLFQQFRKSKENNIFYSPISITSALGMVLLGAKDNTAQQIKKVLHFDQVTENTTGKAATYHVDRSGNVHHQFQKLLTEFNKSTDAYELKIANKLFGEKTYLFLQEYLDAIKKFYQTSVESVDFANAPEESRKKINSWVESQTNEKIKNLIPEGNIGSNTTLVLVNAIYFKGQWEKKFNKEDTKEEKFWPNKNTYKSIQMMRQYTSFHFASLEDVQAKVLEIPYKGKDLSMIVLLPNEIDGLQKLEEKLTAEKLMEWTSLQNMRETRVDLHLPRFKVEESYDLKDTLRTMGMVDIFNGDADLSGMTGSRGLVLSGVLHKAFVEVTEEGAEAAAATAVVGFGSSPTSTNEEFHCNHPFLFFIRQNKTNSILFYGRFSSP

Broadly, the Kd is the free concentration of one partner at which half of the binding sites on the other are occupied at equilibrium, for simple one-to-one binding. `CSCC[C@H](NC(=O)CN)C(=O)N[C@@H](CS)C(=O)N[C@@H](CO)C(=O)N[C@@H](Cc1ccccc1)C(=O)N[C@H](C(=O)N[C@@H](CC(=O)O)C(=O)N[C@H](C(=O)N[C@@H](C)C(=O)N[C@@H](CC(N)=O)C(=O)N[C@@H](CS)C(=O)N1CCC[C@H]1C(=O)O)C(C)C)C(C)C` [Peptide Y3] (H-GMCSFVDVANCP-OH): the Kd on CYFRA 21-1 worked out at 14 nM.

B1: synthetic peptide C4 (peptide)
peptide: HHRLTRSMQLMM
notes: dodecapeptide C4 from phage display, synthesized; source: synthetic peptide (Fmoc solid phase, Synpeptide Co., HPLC purified)
B1: binding with carcinoembryonic antigen was characterised by a dissociation constant (Kd) of 16 nM.

B2: synthetic peptide C3 (peptide)
peptide: WSPSALLPSSVT
notes: dodecapeptide C3 from phage display, synthesized; source: synthetic peptide (Fmoc solid phase, Synpeptide Co., HPLC purified)
In the case of B2, in the experiment with carcinoembryonic antigen, the Kd was 460 nM.

B3: synthetic peptide Y10 (peptide)
peptide: QSYFNACWSCNH
notes: source: synthetic peptide (Fmoc solid phase, Synpeptide Co., HPLC purified)
B3 showed a Kd in the experiment with cytokeratin fragment 19 of 1000 nM.

B4: synthetic peptide S3 (peptide)
peptide: IQCFSLAPYVGC
notes: dodecapeptide S3 from phage display, synthesized; source: synthetic peptide (Fmoc solid phase, Synpeptide Co., HPLC purified)
In experiment [1], B4 gave a Kd of 2900 nM.

B5: synthetic peptide Y1 (peptide)
peptide: CFAGTPSILMLA
notes: dodecapeptide Y1 from phage display, synthesized; source: synthetic peptide (Fmoc solid phase, Synpeptide Co., HPLC purified)
B5: binding with cytokeratin fragment 19 was put at a Kd of 83 nM.

B6: synthetic peptide S2 (peptide)
peptide: AYSRDVVLNMWR
notes: dodecapeptide S2 from phage display, synthesized; source: synthetic peptide (Fmoc solid phase, Synpeptide Co., HPLC purified)
Turning to B6, binding in experiment [1] was characterised by a dissociation constant (Kd) of 6.1 nM.

B7: synthetic peptide Y3 (peptide)
peptide: GMCSFVDVANCP
notes: dodecapeptide Y3 from phage display, synthesized; source: synthetic peptide (Fmoc solid phase, Synpeptide Co., HPLC purified)
With B7, the Kd in the experiment with cytokeratin fragment 19 was determined as 14 nM.

B8: synthetic peptide S1 (peptide)
peptide: TLSWHQNLRLME
notes: dodecapeptide S1 from phage display, synthesized; source: synthetic peptide (Fmoc solid phase, Synpeptide Co., HPLC purified)
As to B8, binding in experiment [1] was characterised by a dissociation constant (Kd) of 28 nM.

B9: synthetic peptide C2 (peptide)
peptide: YGVSALSSYVSC
notes: dodecapeptide C2 from phage display, synthesized; source: synthetic peptide (Fmoc solid phase, Synpeptide Co., HPLC purified)
As to B9, in the experiment with carcinoembryonic antigen, the affinity, expressed as Kd, was 870 nM.
